A word on the Kd: it is the free concentration of one partner at which half of the binding sites on the other are occupied at equilibrium, for simple one-to-one binding. Lower therefore signals higher affinity.

Experiment [1] addresses T1, CEP1 (X at 6 and 12 = citrulline; biotin-conjugated for SPR and Luminex).
T1 construct: CKIHAXEIFDSXGNPTVECK; derived from alpha-enolase; also called CEPI; citrullinated alpha-enolase peptide
T1 peptide: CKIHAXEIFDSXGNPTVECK
Put plainly: SPR (Biacore 2000), biotinylated CEP1 on a streptavidin chip, Fab as analyte up to about 3400 nM; plot of RU against concentration; REP1 channel as reference per the legend. The protocol: (§1) SPR sensorgrams of chimeric E4NG Fab fragment (A), E4 (B), F3(C), D10 (D), and B2 (E) binding to immobilized CEP1. Response Units (R.U.) reflect the value of subtracting […]. A series of analyte concentrations were tested. The binding of E4NG (F) and F3 (G) to citrullinated Histone2A peptide were analyzed in a similar way as shown in (A)-(E).
(§2) Surface plasmon resonance analysis. Binding of peptides to the given antibody was analyzed by SPR using a Biacore 2000 biosensor at 25° C. Briefly, the biotin-conjugated peptide was coupled to an […] by streptavidin binding. Then the Fab fragment or full-length antibody was diluted in PBS-P running buffer (20 mM phosphate buffer, 2.7 mM KCl, 137 mM NaCl and 0.05% Surfactant P20) and injected at in a series of concentrations. Data processing and analysis were performed using Biacore 2000 evaluation software.
On the technique in general: SPR reads the build-up and loss of mass on a sensor chip optically.

Experiment [2] concerns the target T1, CEP1. The experiment can be described thus: SPR (Biacore 2000), biotinylated CEP1 on a streptavidin chip, full antibody as analyte up to 200 nM; plot of RU against concentration; REP1 channel as reference per the legend; the legend says only E4, paragraph 117 ties the CEP1 Kd to E4NG. The protocol: as §1, §2
Experiment [3] addresses T1, CEP1. Put plainly: SPR, CEP1 immobilised. The protocol: as §2

B1: chimeric E4NG Fab fragment (murine IgG2b constant region) (Fab)
heavy: QVQLEESGPGLVRPSETLSLSCTVSGFPMSESYFWGWIRQSPGKGLEWLGSVIHTGTTYYRPSLESRLTIAMDPSKNQVSLSLTSVTVADSAMYYCVRIRGGSSNWLDPWGPGIVVTASS
light: QSVWTQPPSVSAAPGQKVTISCSGDDSILRSAFVSWYQQVPGSAPKLVIFDDRQRPSGIPARFSGSNSGTTATLDIAGLQRGDEADYYCAAWNGRLSAFVFGSGTKLTVLGQPKSSPSVTLFPPSSEELETNKATLVCTITDFYPGVVTVDWKVDGTPVTQGMETTQPSKQSNNKYMASSYLTLTARAWERHSSYSCQVTHEGHTVEKSLSRADCS
notes: domain: constant region; Fab made with the ImmunoPure Fab Preparation Kit (papain); also called E4Fab; mE4Fab; not shown: part of the mouse IgG2b constant region (UniProtKB P01867) left in the Fab after cleavage
On to B1, for which binding with CEP1 [1] was characterised by a dissociation constant (Kd) of 2300 nM.

B2: chimeric E4NG (antibody, mouse IgG2b)
heavy: QVQLEESGPGLVRPSETLSLSCTVSGFPMSESYFWGWIRQSPGKGLEWLGSVIHTGTTYYRPSLESRLTIAMDPSKNQVSLSLTSVTVADSAMYYCVRIRGGSSNWLDPWGPGIVVTASS
light: QSVWTQPPSVSAAPGQKVTISCSGDDSILRSAFVSWYQQVPGSAPKLVIFDDRQRPSGIPARFSGSNSGTTATLDIAGLQRGDEADYYCAAWNGRLSAFVFGSGTKLTVLGQPKSSPSVTLFPPSSEELETNKATLVCTITDFYPGVVTVDWKVDGTPVTQGMETTQPSKQSNNKYMASSYLTLTARAWERHSSYSCQVTHEGHTVEKSLSRADCS
notes: domain: constant region; Human E4 variable regions on mouse IgG2b/lambda-1 constant regions; also called chimeric non-glycosylated (NG) E4; mE4; not shown: mouse IgG2b heavy chain constant region, UniProtKB P01867
As to B2, the results for the Kd with CEP1 [2] and in the experiment with CEP1 [3] were 250 nM and 0.25 nM, respectively.

Values taken from US20200291133A1 (VACARA, published 2020).
